The values that follow come from patent US20040147006, “Peptides that bind to DNA and inhibit DNA replication, and methods of use” (published 2004).

Where no end group is shown, it is not given here. [ ]: non-standard residue; d: D form. pT = C[C@@H](OP(=O)(O)O)[C@H](N)C(=O)O

Series [1] addresses T1, T-ag peptide 2(9), unphosphorylated (Simian virus 40).
T1 chain: SQHSTPPKK
Put plainly: filter; background at 0.5-2 mM; EMSA at 2 mM negative. As to conditions: protein: synthetic; tags: synthetic peptide; label: 5'-32P.

Series [2] has as its target T2, T-ag peptide 1(9), phospho-Thr124 (Simian virus 40).
T2 chain: SQHS[pT]PPKK
The description is as above. The note with it: protein: synthetic; tags: synthetic peptide, phosphorylated Thr124; label: 5'-32P.

In series [3] the target is T3, E1 peptide E1-P2(25), BP-E1, unphosphorylated (Bovine papillomavirus, UniProt P03116 SEQ:1-25).
T3 chain: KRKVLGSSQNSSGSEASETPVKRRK
Nature of the series: filter; binds at 0.25 mM, better than T-2(17); EMSA works without glutaraldehyde. As to conditions: protein: synthetic; tags: synthetic peptide; label: 5'-32P. Background: Mobility shift assays separate free from complexed probe on a gel.

In series [4] the target is T4, T-ag peptide T-2(17), unphosphorylated (Simian virus 40, UniProt P03070).
T4 chain: ATADSQHSTPPKKKRKV
Nature of the series: filter; significant at 0.5 mM, saturated at 1-2 mM; higher affinity than 13-mer. As to conditions: protein: synthetic; tags: synthetic peptide; label: 5'-32P.

Series [5] has as its target SV40 large T antigen (full length) (Simian virus 40, UniProt P03070 P03070:1-708). Nature of the series: EMSA; hexamers and double hexamers; 7 mM MgCl2, AMP-PNP, 37 C, glutaraldehyde. As to conditions: label: 5'-32P.

B1: 64-bp SV40 core origin (dsDNA)
DNA 1: TAATTTTTTTTATTTATGCAGAGGCCGAGGCCGCCTCGGCCTCTGAGCTATTCCAGAAGTAGTG
DNA 2: CACTACTTCTGGAATAGCTCAGAGGCCGAGGCGGCCTCGGCCTCTGCATAAATAAAAAAAATTA
B1: the binding result is on record as “no binding” in series [1]; “no binding” in series [2]; “binds” in series [3]; “binds” in series [4]; “binds” in series [5].
